Data: article PMC3776556, “Crystal structures of the CPAP/STIL complex reveal its role in centriole assembly and human microcephaly” (eLife, 2013)

Legend:
[1] = molecular target: T1, Danio rerio CPAP^937–1124 TCP domain, WT (Danio rerio, UniProt E7FCY1 937-1124); assay: ITC; STIL peptide in syringe titrated into CPAP TCP domain in cell; 50 mM HEPES pH 7.5, 100 mM NaCl, 25°C; single set of binding sites model, N as a variable; CPAP typically 40 μM, STIL typically 700 μM; details: both partners purified
T1 construct: remnant of the cloning and protease cleavage sites at the N-terminus; also called TCP domain of D. rerio CPAP; G-box; source: E. coli BL21 (DE3) Rosetta, purified (NiNTA, proteolytic tag cleavage, optionally size exclusion, ion exchange); not shown: His tag, N-terminal, cleaved
T1 sequence: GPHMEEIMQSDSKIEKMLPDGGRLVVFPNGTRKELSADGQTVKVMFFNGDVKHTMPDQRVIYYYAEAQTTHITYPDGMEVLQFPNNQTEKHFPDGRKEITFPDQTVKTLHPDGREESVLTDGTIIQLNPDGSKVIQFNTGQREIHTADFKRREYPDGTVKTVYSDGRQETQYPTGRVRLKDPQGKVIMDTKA

[2] = tested on: sas-4(RNAi) C. elegans embryos; assay: Monopolar spindle assay after sas-4(RNAi); type: in vivo; details: second division
Description: (§1) C. elegans strains carrying single-copy sas-4 transgenes were generated using MosSCI ([Frøkjær-Jensen et al., 2008]). To render the transgenes RNAi-resistant, a 500 bp region at the 5′ end of the sas-4 genomic sequence was re-encoded. The engineered sas-4 sequence was cloned into pCFJ151 with the promoter and 3′ UTR from sas-6, as well as a C-terminal GFP tag. pCFJ151 contains homology arms that direct transposase-mediated insertion of intervening sequence into the ttTi5606 Mos1 site on Chromosome II. Transgene integration was confirmed by PCR of regions spanning each side of the insertion. The genotypes of the strains used are: unc-119(ed9)III; ltSi85[pOD1550; Psas-6::SAS-4 reencoded::GFP; cb-unc-119(+)]II for WT SAS-4; and unc-119(ed9)III; ltSi177[pOD1551; Psas-6::SAS-4(1-556) reencoded::GFP; cb-unc-119(+)]II for SAS-4^ΔTCP.
(§2) Double-stranded sas-4 RNA was generated as described ([Oegema et al., 2001]) using DNA templates prepared by PCR. For experiments to quantify monopolar spindle formation, L4 hermaphrodites were injected with dsRNA and incubated at 20°C for 40 hr prior to dissection for imaging. For lethality assays, worms were maintained at 20°C. L4 hermaphrodites were injected with dsRNA and singled 24 hr post-injection. Adult worms were removed from the plates 48 hr post-injection, and hatched larvae and unhatched embryos were counted 24 hr later. […]

[3] = tested on: sas-4(RNAi) C. elegans embryos; assay: Embryonic viability after sas-4(RNAi); type: in vivo
Description: as §1
Double-stranded sas-4 RNA was generated as described ([Oegema et al., 2001]) using DNA templates prepared by PCR. For experiments to quantify monopolar spindle formation, L4 hermaphrodites were injected with dsRNA and incubated at 20°C for 40 hr prior to dissection for imaging. For lethality assays, worms were maintained at 20°C. L4 hermaphrodites were injected with dsRNA and singled 24 hr post-injection. Adult worms were removed from the plates 48 hr post-injection, and hatched larvae and unhatched embryos were counted 24 hr later.

[4] = tested on: centrioles in sas-4(RNAi) C. elegans embryos; assay: Localisation of SAS-4::GFP in absence of endogenous protein; type: in vivo
Description: as §1, §2

[5] = molecular target: T2, Drosophila melanogaster DSas-4 (dCPAP) TCP domain, residues 700–901 (Drosophila melanogaster, UniProt Q9VI72 700-901); assay: crystal structure; D. melanogaster dSTIL^1–47 fused to the N-terminus of dCPAP^700–901 on one chain; sitting drop, Morpheus screen; details: both partners purified
T2 construct: source: E. coli B834 (DE3), purified (NiNTA, proteolytic tag cleavage, size exclusion), as a fusion with dSTIL^1–47
T2 sequence (looked up): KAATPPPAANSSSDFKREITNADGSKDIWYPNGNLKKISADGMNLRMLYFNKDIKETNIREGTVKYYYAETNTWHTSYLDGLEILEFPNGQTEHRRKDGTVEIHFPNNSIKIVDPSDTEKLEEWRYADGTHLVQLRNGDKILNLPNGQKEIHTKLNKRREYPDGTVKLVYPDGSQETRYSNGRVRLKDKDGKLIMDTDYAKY

[6] = SEC-MALS / dynamic light scattering of CPAP TCP domain; type: physicochemical
[7] = molecular target: T1, Danio rerio CPAP^937–1124 TCP domain, WT; assay: crystal structure; D. rerio CPAP^937–1124 with D. rerio STIL^408–428, protein/peptide mixture; 100 mM Tris pH 8.5, 200 mM CaAcetate, 17% PEG-2000 MME, 19.5°C; details: both partners purified

B1: Danio rerio STIL^429–448 (peptide)
chain: GQTKRVHPLVPELSMVLDGSFEFGENLYFQ
notes: remnant of the cloning and protease cleavage sites at the N-terminus; STIL, Danio rerio, residues 429-448; remnant of the cloning and protease cleavage sites at the C-terminus; expression and purification are told for STIL^404–448; also called C-terminal region of CR2 peptide; source: E. coli C41 BL21 (DE3), purified (NiNTA, proteolytic cleavage of the His-lipoyl domains, ion exchange); not …
Kd [1]: 540 µM | dH [1]: -6.3 kcal/mol | stoichiometry N [1]: 0.97

B2: SAS-4^WT::GFP: C. elegans WT SAS-4 (aa 1–808) GFP fusion, RNAi-resistant transgene (protein, UniProt P34402 1-808, looked up)
chain: MASDENIGADGEQKPSRPFLRKGQGTARFRMPRNNKTSAGAPPTSELSSASSPSINVPRFSLSNALPNSARTVDSGISNEDETRPPTTASLPMDQPSLSSSPENRLNPAPSVAEEHGHSGQHAEEEEDNDTDEVSAMPSFVPDEPSTLVNSDHELSDDALKYKNAAAEFKAFERRMDSMRSASTITTSLATPSSCAPSNSSEPPTRSTPIMNDLGVGPNNHNWPSSMQELSGISLETPQARPLGSNRINQLVRSEAQTGISLLQHHERPTVTAPLRRNDMMNSSRQNPQNGNVQDENRPEHVYDQPIHVPGSSLDRQKLEIEIRRHRNLNIQLRDTIAHLDYAEESVHTTKRQLEEKISEVNNFKKELIEEFKKCKKGVEEEFEKKFEKIKEDYDELYEKLKRDQRDLERDQKILKKGTGERNKEFTETIATLRDKLRASETKNAQYRQDIRVRDEKLKKKDEEIEKLQKDGNRLKSTLQTLEKRVKQLRTEKERDDKEKEMFAKVAMNRKTSNPVPPVLNQSVPISITSNGPSRHPSSSSLTTFRKPSTSNRERGVSWADEPNEQSLEAVPQEFLMMPVKEMPGKFGKCTIYRDSLGETSKVTDTIANGLLFEYSNGDLRWVNRQNAVNIYISAVDKTVRIDLPTYNISIIHTFQRQVEVLRPGNNITLISIKRREVRTDLIYQNGMYKTEIFNRDGRYVTKDFSNQEVSRKYNPGTHTYRDNQCRYVLVTDYNDFELVEPEFRLRWYQGDPTGLNNQYILKIIGRPECSEKTLRLEVNLSTCEGTLETAEMIGDKRRKTTLFQWKK
modifications: full-length GFP fusion
notes: C. elegans WT SAS-4 (aa 1–808) GFP fusion, RNAi-resistant transgene
rescue of monopolar spindle phenotype [2]: fully rescued | rescue of embryonic viability [3]: fully rescued | centriole targeting [4]: targeted to centrioles

B3: Drosophila melanogaster Ana2 (dSTIL) residues 1–47 (domain or fragment, UniProt Q9XZ31 1-47, looked up)
chain: MFVPETEDMLPRLAPRPSAAVPMGHTNEIIGPTVPEVSILFGQPPQD
notes: Ana2 (dSTIL), Drosophila melanogaster, residues 1-47, the region equivalent to CR2; codon-optimised gene; no linker or residues left by tag cleavage are told; also called dSTIL^1–47; dSTIL peptide; not shown: His tag, N-terminal, cleaved
binding result [5]: binds

B4: CPAP^937–1124: TCP domain of Danio rerio CPAP, residues 937–1124, recombinant, GPHM at N-terminus (protein)
chain: T1 sequence
modifications: left off: His tag, N-terminal, cleaved
notes: TCP domain of Danio rerio CPAP, residues 937–1124, recombinant, GPHM at N-terminus
oligomeric state in solution ([6]; SAXS and SEC-MALS): predominantly monomeric in solution | molar mass (averaged across central 50% of peak) ([6]; SEC-MALS, injected at approximately 460 μM, 25 mM bis Tris pH 7.2, 100 mM NaCl, theoretical monomer 22 kDa): 23 kDa | Rh (hydrodynamic radius) ([6]; dynamic light scattering with SEC, intermediate concentration, 25 mM bis Tris pH 7.2, 100 mM NaCl): 2.9 ± 0.15 nm

B5: Danio rerio STIL^408–428 (peptide)
chain: GSGVEDEDLSPRPSPNPHPVSQENLYFQ
notes: remnant of the cloning and protease cleavage sites at the N-terminus; remnant of the cloning and protease cleavage sites at the C-terminus; used for crystallisation only; also called STIL peptide; source: E. coli C41 BL21 (DE3), purified (NiNTA, proteolytic cleavage of the His-lipoyl domains, ion exchange); not shown: His-tagged lipoyl domain (Bacillus stearothermophilus dihydrolipoamide …)
binding result [7]: binds

B6: SAS-4^ΔTCP::GFP: C. elegans SAS-4 (aa 1–556) with TCP domain (aa 557–808) deleted, GFP fusion (protein, UniProt P34402 1-556, looked up, fragment)
chain: MASDENIGADGEQKPSRPFLRKGQGTARFRMPRNNKTSAGAPPTSELSSASSPSINVPRFSLSNALPNSARTVDSGISNEDETRPPTTASLPMDQPSLSSSPENRLNPAPSVAEEHGHSGQHAEEEEDNDTDEVSAMPSFVPDEPSTLVNSDHELSDDALKYKNAAAEFKAFERRMDSMRSASTITTSLATPSSCAPSNSSEPPTRSTPIMNDLGVGPNNHNWPSSMQELSGISLETPQARPLGSNRINQLVRSEAQTGISLLQHHERPTVTAPLRRNDMMNSSRQNPQNGNVQDENRPEHVYDQPIHVPGSSLDRQKLEIEIRRHRNLNIQLRDTIAHLDYAEESVHTTKRQLEEKISEVNNFKKELIEEFKKCKKGVEEEFEKKFEKIKEDYDELYEKLKRDQRDLERDQKILKKGTGERNKEFTETIATLRDKLRASETKNAQYRQDIRVRDEKLKKKDEEIEKLQKDGNRLKSTLQTLEKRVKQLRTEKERDDKEKEMFAKVAMNRKTSNPVPPVLNQSVPISITSNGPSRHPSSSSLTTFRKPSTSNRERG
modifications: GFP fusion
notes: C. elegans SAS-4 (aa 1–556) with TCP domain (aa 557–808) deleted, GFP fusion
rescue of monopolar spindle phenotype [2]: not by the ΔTCP transgene | rescue of embryonic viability [3]: not by the ΔTCP transgene | centriole targeting [4]: did not, and instead exhibited a diffuse accumulation in the pericentriolar material

B7: Danio rerio STIL^411–428 (peptide)
chain: GEDEDLSPRPSPNPHPVSQENLYFQ
notes: remnant of the cloning and protease cleavage sites at the N-terminus; remnant of the cloning and protease cleavage sites at the C-terminus; expression and purification are told for STIL^404–448; the same paragraph gives the extra residues of this construct; also called N-terminal region of CR2 peptide; source: E. coli C41 BL21 (DE3), purified (NiNTA, proteolytic cleavage of the His-lipoyl …)
Kd [1]: 4 µM | dH [1]: -11.3 kcal/mol | stoichiometry N [1]: 0.98
